Data on two substances can be found in PMC4646333.

Bounds are passed on as bounds.

In assay [1] the target is R117A mutant of ferritin from Pyrococcus furiosus (R117A-PfFtn) (Pyrococcus furiosus) (UniProt Q8U2T8).
Assay [2] deals with wild-type ferritin from Pyrococcus furiosus (WT-PfFtn) (Pyrococcus furiosus) (UniProt Q8U2T8). The assay can be described thus: native gel or EMSA; native gel electrophoresis of apo protein; WT-PfFtn 5 μM monomer, R117A-PfFtn 4.3 or 80 μM monomer. A general note: In EMSA bound probe runs differently from free probe, usually more slowly.

For “R117A mutant of ferritin from Pyrococcus furiosus (R117A-PfFtn) (from UniProt Q8U2T8 1-174) (natural protein)”, the rate of Fe(II) oxidation (Fe(III) formation at 315 nm after addition of two Fe(II) per subunit), R117A-PfFtn against WT-PfFtn in assay [1] was over 100 fold.

Consider “wild-type ferritin from Pyrococcus furiosus (WT-PfFtn) (from UniProt Q8U2T8 1-174) (natural protein)”, for which the stoichiometry N (commonly the number of molecules, sites or subunits per partner or assembly) in assay [2] is 24.
